Among the data in US20070180545A1 are relative geometric mean fluorescence (relative geometric mean fluorescence) values, retold here.

Several values for one entry are separate records, joined by “and”; a condition that tells them apart may be missing. Equal entries are not always repeated.

For assay [1], the target named is TAT-031 as present on the surface of human tumor cell lines (PC3, H1299, HL-60) (human) (UniProt P08195). Kind of assay: flow cytometry on HL-60 human tumor cells. On the technique in general: Flow cytometry measures light scatter and fluorescence of single cells or particles in a stream.
Assay [2] deals with TAT-031 (full-length clone expressed from phCMV1-TAT-031 on stably transfected cells) (human) (UniProt P08195). Nature of the assay: flow cytometry on BaF3 cells stably transfected with TAT-031 (SLC3A2).
The target in assay [3] is TAT-031 as present on the surface of human tumor cell lines (PC3, H1299, HL-60) (human) (UniProt P08195). Kind of assay: flow cytometry on PC-3 human tumor cells.
Assay [4] shares this target. Nature of the assay: flow cytometry on H1299 human tumor cells.

For “Mouse monoclonal antibody 44D7 (Abcam, Cat#AB23495)”, the relative geometric mean fluorescence (relative geometric mean fluorescence) is 118 and 257 and 205 in assay [1]; 165 and 102 in assay [2]; 153 and 98.6 and 86 in assay [3]; 527 and 419 and 389 in assay [4].
